Reference: publication PMC7378552, “Impact of the nisin modification machinery on the transport kinetics of NisT” (Scientific Reports, 2020)
Blank lines part the entries; values can stand above or below the molecule they belong to.

B1: 10HNisT (deca-histidine tagged NisT, ABC transporter of the nisin precursor peptide) (natural protein, Lactococcus lactis, UniProt Q03203 1-600, looked up)
chain: MDEVKEFTSKQFFYTLLTLPSTLKLIFQLEKRYAIYLIVLNAITAFVPLASLFIYQDLINSVLGSGRHLINIIIIYFIVQVITTVLGQLESYVSGKFDMRLSYSINMRLMRTTSSLELSDYEQADMYNIIEKVTQDSTYKPFQLFNAIIVELSSFISLLSSLFFIGTWNIGVAILLLIVPVLSLVLFLRVGQLEFLIQWQRASSERETWYIVYLLTHDFSFKEIKLNNISNYFIHKFGKLKKGFINQDLAIARKKTYFNIFLDFILNLINILTIFAMILSVRAGKLLIGNLVSLIQAISKINTYSQTMIQNIYIIYNTSLFMEQLFEFLKRESVVHKKIEDTEICNQHIGTVKVINLSYVYPNSNAFALKNINLSFEKGELTAIVGKNGSGKSTLVKIISGLYQPTMGIIQYDKMRSSLMPEEFYQKNISVLFQDFVKYELTIRENIGLSDLSSQWEDEKIIKVLDNLGLDFLKTNNQYVLDTQLGNWFQEGHQLSGGQWQKIALARTFFKKASIYILDEPSAALDPVAEKEIFDYFVALSENNISIFISHSLNAARKANKIVVMKDGQVEDVGSHDVLLRRCQYYQELYYSEQYEDNDE
notes: NisT, lanthipeptide ABC transporter of Lactococcus lactis; nisT gene amplified from genomic DNA of L. lactis NZ97000 and inserted into pNZ-SV10H; TMD is residues 1-347, the NBD begins at H348; Used in detergent (CYMAL5) in the pull-down; also called WT; source: L. lactis NZ9000 (pNZ-SV10HnisT), membranes solubilised with FC-16, purified (IMAC, SEC); not shown: His10 (deca-histidine), N-terminal, …

Experiments:
[1] = target: T1, NisT (10HNisT) (Lactococcus lactis, UniProt Q03203); assay: malachite green phosphate release assay, Michaelis-Menten fit; assay type: biochemical; conditions: basal ATPase, no peptide substrate; 1 µM NisT, ATP 0-5 mM, 10 mM MgCl2, 0.4% CYMAL5, 30 °C, 30 min
T1 construct: full length, N-terminal deca-His tag with linker (tag kept), homologous expression in L. lactis NZ9000, solubilised in Fos-choline-16, assayed in CYMAL5
T1 sequence (Q03203 1-600): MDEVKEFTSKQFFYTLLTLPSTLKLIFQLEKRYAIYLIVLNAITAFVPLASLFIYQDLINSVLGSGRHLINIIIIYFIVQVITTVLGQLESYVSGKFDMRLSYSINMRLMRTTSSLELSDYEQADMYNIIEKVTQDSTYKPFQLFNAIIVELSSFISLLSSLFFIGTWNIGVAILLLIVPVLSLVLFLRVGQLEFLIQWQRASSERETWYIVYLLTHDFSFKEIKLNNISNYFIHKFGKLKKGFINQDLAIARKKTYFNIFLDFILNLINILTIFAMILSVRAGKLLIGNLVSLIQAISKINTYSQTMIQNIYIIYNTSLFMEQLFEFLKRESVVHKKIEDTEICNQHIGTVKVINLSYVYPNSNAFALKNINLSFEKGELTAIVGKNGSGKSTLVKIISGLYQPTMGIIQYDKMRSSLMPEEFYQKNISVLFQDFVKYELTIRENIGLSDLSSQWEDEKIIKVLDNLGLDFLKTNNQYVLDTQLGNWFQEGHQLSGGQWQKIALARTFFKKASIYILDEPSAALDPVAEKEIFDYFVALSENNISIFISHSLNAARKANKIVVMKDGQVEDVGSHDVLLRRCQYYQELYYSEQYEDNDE

[2] = target: T2, NisB (dehydratase of nisin precursor peptide) (Lactococcus lactis, UniProt P20103 1-993); assay: pull-down; 10HNisT (~15 ug) immobilised on Ni-NTA magnetic beads; 10 uM NisB, NisC or NisBC added without substrate; activity assay buffer with 0.4% CYMAL5, 400 mM glutamate, 5 mM MgATP; 1 h at 30 C; six washes, elution with 50 mM EDTA; Western blot; conditions: both partners purified
T2 construct: NisB, nisin dehydratase of Lactococcus lactis; NisB alone was not held on Ni-NTA beads, so it probably bore no His tag in the assay; source: purified
T2 sequence (looked up): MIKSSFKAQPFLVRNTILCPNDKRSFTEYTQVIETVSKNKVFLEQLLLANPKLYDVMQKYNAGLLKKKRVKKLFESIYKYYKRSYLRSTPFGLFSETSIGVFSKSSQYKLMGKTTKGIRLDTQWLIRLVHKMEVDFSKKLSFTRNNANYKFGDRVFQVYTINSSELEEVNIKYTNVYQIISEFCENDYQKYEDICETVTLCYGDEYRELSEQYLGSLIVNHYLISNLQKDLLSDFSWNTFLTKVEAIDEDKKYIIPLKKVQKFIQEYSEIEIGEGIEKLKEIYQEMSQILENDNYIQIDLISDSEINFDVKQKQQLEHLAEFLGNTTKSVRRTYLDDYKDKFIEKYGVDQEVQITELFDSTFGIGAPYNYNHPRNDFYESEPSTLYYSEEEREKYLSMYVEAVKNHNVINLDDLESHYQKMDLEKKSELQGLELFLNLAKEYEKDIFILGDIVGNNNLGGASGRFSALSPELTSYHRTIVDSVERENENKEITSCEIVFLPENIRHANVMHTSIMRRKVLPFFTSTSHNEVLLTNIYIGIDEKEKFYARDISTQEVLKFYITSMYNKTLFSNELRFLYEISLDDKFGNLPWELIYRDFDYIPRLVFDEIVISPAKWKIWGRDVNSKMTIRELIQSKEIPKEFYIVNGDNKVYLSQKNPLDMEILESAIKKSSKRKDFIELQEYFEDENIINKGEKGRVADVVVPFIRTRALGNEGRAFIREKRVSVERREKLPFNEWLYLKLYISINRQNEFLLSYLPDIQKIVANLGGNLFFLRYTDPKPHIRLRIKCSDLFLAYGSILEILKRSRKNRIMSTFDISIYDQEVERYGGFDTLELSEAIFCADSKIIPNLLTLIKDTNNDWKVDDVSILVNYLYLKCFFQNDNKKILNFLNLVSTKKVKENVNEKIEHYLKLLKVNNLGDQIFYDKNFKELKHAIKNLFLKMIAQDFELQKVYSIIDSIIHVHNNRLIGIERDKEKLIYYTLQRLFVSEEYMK

[3] = target: B1; assay: as above; conditions: both partners purified

Km [1]: 370 ± 40 µM
Molecule: Nc1ncnc2c1ncn2[C@@H]1O[C@H](COP(=O)(O)OP(=O)(O)OP(=O)(O)O)[C@@H](O)[C@H]1O [ATP]

Molecule: B1
binding result [2]: binds

binding result [3]: binds
B2: NisC (cyclase of nisin precursor peptide) (enzyme, Lactococcus lactis, UniProt Q03202 1-418, looked up)
chain: MRIMMNKKNIKRNVEKIIAQWDERTRKNKENFDFGELTLSTGLPGIILMLAELKNKDNSKIYQKKIDNYIEYIVSKLSTYGLLTGSLYSGAAGIALSILHLREDDEKYKNLLDSLNRYIEYFVREKIEGFNLENITPPDYDVIEGLSGILSYLLLINDEQYDDLKILIINFLSNLTKENNGLISLYIKSENQMSQSESEMYPLGCLNMGLAHGLAGVGCILAYAHIKGYSNEASLSALQKIIFIYEKFELERKKQFLWKDGLVADELKKEKVIREASFIRDAWCYGGPGISLLYLYGGLALDNDYFVDKAEKILESAMQRKLGIDSYMICHGYSGLIEICSLFKRLLNTKKFDSYMEEFNVNSEQILEEYGDESGTGFLEGISGCILVLSKFEYSINFTYWRQALLLFDDFLKGGKRK
notes: NisC, nisin cyclase of Lactococcus lactis; NisC alone was not held on Ni-NTA beads, so it probably bore no His tag in the assay; source: purified
